{"source": "the DeepSol protein solubility set"}
{"assay": "soluble on expression in E. coli; label from the status in PepcDB or PDB records"}
{"sequence": "MKDPRIEKLAYNLINYSIRLQKGEKVLIENFGLQKELVTALVKEAYAAGGFPFVSLKDHQVDRSLLMGATEEHFEQIAAYEASVMKDMDAYIGLRSGDNINEQADVPSERMKVHGQTVGKKVHRDIRVPKTRWVVLRYPNASMAQLAKMSTEAFEDFYFEVCNLDYGKMDKAMDSLVTLMNKTDKVRLTGPGTDLTFSIKDIPAIKCSGHLNIPDGEVYSAPVRDSVNGTVSYNTPSPYNGYTFENVQLKFENGQIVEATANDSERINKIFDTDEGARYVGEFAIGVNPYILHPMGDILFDEKIDGSFHFTPGQAYDDAWNGNNSNIHWDLVCIQRPEYGGGEIYFDDVLIRKDGRFVVPELEALNPENLK", "soluble on expression in E. coli": "not soluble"}
{"sequence": "MDFWPEFMATSWGREFVAGGFGGVAGIISGYPLDTLRIRQQQSSKSGSAFSILRRMLAIEGPSSLYRGMAAPLASVTFQNAMVFQIYAIFSRSFDSSVPLVEPPSYRGVALGGVATGAVQSLLLTPVELIKIRLQLQQTKSGPITLAKSILRRQGLQGLYRGLTITVLRDAPAHGLYFWTYEYVRERLHPGCRKTGQENLRTMLVAGGLAGVASWVACYPLDVVKTRLQQGHGAYEGIADCFRKSVKQEGYTVLWRGLGTAVARAFVVNGAIFAAYEVALRCLFNQSPSPDIVTGD", "soluble on expression in E. coli": "soluble"}
{"sequence": "MLDLVNQLELDSQMKQFKLVSQMTRQDVIILDEPGYLPFSQKRGALLFHLMSQLHENTSVIITTNLEFSEWGTLFTEAKMTNALLDRLIHHCHMLETGNESYRFKHRNLEHHHHHH", "soluble on expression in E. coli": "not soluble"}
{"sequence": "MSLGSTQLQLHGLLSNISSKEGTYAKLGGLYTQSLARLVAKCEDLFMGGQKKELHFNENNWSLFKLTCNKPCCDSGDAIYYCATCSEDPGSTYAVKICKAPEPKTVSYCSPSVPVHFNIQQDCGHFVASVPSSMLSSPDAPKDPVPALPTHPPAQEQDCVVVITREVPHQTASDFVRDSAASHQAEPEAYERRVCFLLLQLCNGLEHLKEHGIIHRDLCLENLLLVHCTLQAGPREKQLPRLIISNFLKAKQKPGGTPNLQQKKSQARLAPEIVSASQYRKFDEFQTGILIYELLHQPNPFEVRAQLRERDYRQEDLPPLPALSLYSPGLQQLAHLLLEADPIKRIRIGEAKRVLQCLLWGPRRELVQQPGTSEEALCGTLHNWIDMKRALMMMKFAEKAVDRREGHHHHHH", "soluble on expression in E. coli": "not soluble"}
{"sequence": "MALTVSLLDKLIDSDPTTREEKDFPVSQQHMLNGLLRDLESMLNSRIGWKNIHEDFLEVRYSILNYGLPDFSSMPYSSQDGQSQLCDIVYEAIREFEPRLRNPHVQISDEKNAIDRTLRLEISATCLIDNDIHELRFNSEVEPVNLGMKLSRAK", "soluble on expression in E. coli": "not soluble"}
{"sequence": "MKHSVHFGAGNIGRGFIGEILFKNGFHIDFVDVNNQIIHALNEKGKYEIEIAQKGQSRIEVTNVAGINSKEHPEQVIEAIQKTDIITTAIGPNILPFIAELLAKGIEARRVAGNTQALDVMACENMIGGSQFLYQEVKKYLSPEGLTFADNYIGFPNAAVDRIVPAQSHEDSLFVVVEPFNEWVVETKRLKNPDLRLKDVHYEED", "soluble on expression in E. coli": "not soluble"}
{"sequence": "MGSDKIHHHHHHMDYRKYFEKLKSDYVYLDNAATTPPLKSVMKKALEFLENYSSIHRGTGYLAKMSTDSYENSRRVIGEYLHATKDDVVVFTANTTDSINKFALLYPFMGNEGVLISDIEHSSNMLPWFKNSGRVKMFNTGKSNKINPYSIEEELYRNPQIKIVSICGASNLTGYLTPLRDIYKICKKYGVYLLVDASQIAPHFKITLDDCDFIAFSGHKMYAPFGAGVLAGRKDVLSHIGLAPTGGGNIVYIGKRGEVIYKEPPLSLEAGTPNGLGAVTVAEAMRVLNEDIGWENMNQHNKRINEIGYKYLSDLSNIKLYYPKDQDIRINRTPTFVFDFKNVGTKVGCDILKENKIGVRCGTFCLYRLIEKVKNIDEYERKRLYRNYIVPNRELPERYSLVRASAGLMTTEEDFLRLRAAIKKVE", "soluble on expression in E. coli": "not soluble"}
{"sequence": "MGSDKIHHHHHHMGAVVVKDLRKRIGKKEILKGISFEIEEGEIFGLIGPNGAGKTTTLRIISTLIKPSSGIVTVFGKNVVEEPHEVRKLISYLPEEAGAYRNMQGIEYLRFVAGFYASSSSEIEEMVERATEIAGLGEKIKDRVSTYSKGMVRKLLIARALMVNPRLAILDEPTSGLDVLNAREVRKILKQASQEGLTILVSSHNMLEVEFLCDRIALIHNGTIVETGTVEELKERYKAQNIEEVFEEVVKCSENF", "soluble on expression in E. coli": "soluble"}
{"sequence": "MNYYSEKIEVVKLADQVAAKLQQLIGSGEYKKGDKIPTEPELMARFGVGRSTVRESVRILANAGLLSVLQGKGTFVQDTTVVAEPLHQRLRRANNKELNEVRHMLEITMVQKAAENRTEKEVKQMRTLLNQRRRAIEEQLQDECLNADIAFHVVIAEASKNQVLIDLYKTFSKVISEYFQTEYPDTKAYKRSQALHEKLCDAIATKESKKAAEYMSQILSLD", "soluble on expression in E. coli": "not soluble"}
{"sequence": "MSLNKKRPLKGRFLHITDIHPDPHYKTGSTFDSGCHRKPKKDGKSEGKKATENERGNEDLDDKEFDTLIKNEDLAGKWGTAVSDCDCPMSLVNITFDWLKEEWANEVDFVVWTGDNARHDIDRRIPRTPKEIFDSNRMIVDRMLDAFGRDMPIVPSIGNNDIYPHNVLAAGPSRITEEFLLIWKHFIPSEAAHVFERGAYFSVEVIPDRLAVISLNTLFWYDANTLVDGCRDHSNDPGALEMDWLEVQLNNFRQRGMQVWLTGHVPPHMNHYYDNCYLRYGDLALRYQDTIVGHLFGHMNVDHFFFIDVDELEATSELTSTSSNTTLSDLPLLHGPRLPRPGPGKYTAMGRSGARKLEEELRKDEGHHHHHH", "soluble on expression in E. coli": "soluble"}
{"sequence": "MLRDTFANTLKDALKARDARRTSTVRLIQAAVKDRDIANRGVGKDPVSDEDIMQILTKMVKQREESATIYEGAGRPELAAQEREEIVIIKEFMPEEIPAEKVRELCQAVISETGASGLRDMGKCMNALKERYPGQIDFAKASGVVKDLLK", "soluble on expression in E. coli": "not soluble"}
{"sequence": "MNKEQECSKNIFDLPREIVIYHLKSAGIFVFEELDCDDIAQTPLLIMAPSVPLHVRLERTPTINLLKCHEKPLTEDQLFLLLSKCQQHTKKCMPSEEEIDQWVEVSSSKPREQSSNRGSKKDSWNHSIFMYNFFHRRGSNKRAAKYLEKIENGKSEKIRARVSQIRNLDLGYISLPMETINLEDAKQRDKLKEKALAETAESKKGKDILNLFTNVYY", "soluble on expression in E. coli": "not soluble"}
{"sequence": "DIGCYTLGIQSGTVETTLCMGSSISIASGLYHAGEKRPICCSIGDSTFFHTGMNSLLNAVFNKANITVTILDNRITAMTGHQPNPGVGFTVTGEPTVEVSLAELCKAMGAGFVTVVDPYNLEETQEAFKAAKEFEGTAVVIAKQPCVISGKRAGI", "soluble on expression in E. coli": "not soluble"}
{"sequence": "MSLAQRLATGKAGSIGLVMPTAPGHQSDVHFGEFLAGLGEEAVRHDFHFVIMPSDPDDEVAALRRLAISGNVDALFIAYMRGHDPRLAMLKSLSMPYVVHGRSFGAELDYPYLDIDNEGAFYDATRLLLQLGHTRFALMNGPMHLDFAIRRRNGVISALAERGLTLEEDCMSHALMTDEQGLLAMERFLQLPERPTAILCSSTVMALGAIRAVNQAGLRLGEDVSLIAHDDVLPLLKPENFSVPLTTTRSSLRAAGVRIAQRLIGTVKQAGPFPEQELWKTELIVRASTGPAPQEGHHHHHH", "soluble on expression in E. coli": "soluble"}
{"sequence": "METIFEDEETMMAAEQSSSGISANSNSNCSASKTEKASKKPKNAIPKVKNSGIHKKPAKSDFDEFLSSMKSRLSQATSMKSNKEQLKMLEETQKLIFDRITKSADARDMEHLEKQMNKL", "soluble on expression in E. coli": "soluble"}
{"sequence": "MSLSGFNYEKNQPHQMRAVSAVLGVFDGATPKYRTADENPELLFAAKQYANNILKVQSQNGIDGRFPDRSDDQNILDISMETGTGKTYTYTQTMFELHRWLGVFKFIVVVPTLSIKAGTQQFLQSKALAEHFEQDFGGDYEGVRLKTYVVESAKKNKGKKSNAPITIEQFVKAENKKEIHVLLINAGMVNSSSMNDTGDKALKDLFDNPVDALAAVRPFMIVDEPHKFPTRDSAKTWGNIKRLKPQYILRYGATFNDEYYNLLYRLTAVDAFNDGLVKGVRVFQEEMQGGMDAAVKLVSSDGKEAKFELNEKDKKQTFKLAKGEDLAQIHPAISDLKIDKMNKTVVVLSNGLELKTGAVINPYSYSQTVQDAMMQRAVAEHFKLERALLAERAPQPKIKPLTLFFIDDIAGYRSGNELSGSLKDKFESWIRAEAARRLKTESDPFYRDYLQKTLDDVSACHGGYFSKDNTDSDDRIEQEINEILHDKEKLLSLDNPRRFIFSKWTLREGWDNPNVFQICKLRSSGSTTSKLQEVGRGLRLPVNELMARVRDVPYKLNYFVDSSEKDFVKQLVGEINDNSFQEEISKKFTEELKQKILQKYPDIKPLVLVNQLFLDGIIDDNENFAEDGYDKLKAAYPEAFPKGLDKGKVSNAKDEGKDTIIMREGKYEELKALWELIHHKAVLQYKIKDEAEFADLFTAYLHENAAKFPQAGIRTAVNEAYINNGLMLSRRIDSFEDEDFIRFNTMTYREFLEKLAQTAKIRMQTLHQAFYCIRNELNIGDFLNMQTIAQIKNGFNRFLLHHSFHKFELDYRLVGSKIHPTKFTNKDGKPRAVKKADLGRFEDTEHRPAAGYLFGEIFYDSDIEHENVANNQIEGVIVFTKIPRNSIKIPVAGGGTYSPDFAYIVKTKSGEILNFVIEAKGTDGAEDLRKSEERKIKHAEKLFAEISKEIKVVFKTQFDGERIAELIGQNMPAGGHSENGREGHHHHHH", "soluble on expression in E. coli": "not soluble"}
{"sequence": "MNLIDYKARERGIEVEMPDERGTSSSCSVCGHEDEDSRVERGLWKCDCCGIVAHGDVNGADNIRQKTLPVTPPLGGSGNGCLAQPCVIQFSRTRGFQPRAPAELEHHHHHH", "soluble on expression in E. coli": "soluble"}
{"sequence": "MSLYQRCFDNASETLFVAGKTPRLSRFAFSDDPKWESGHHVHDNETELIYVKKGVARFTIDSSLYVAHADDIVVIERGRLHAVASDVNDPATTCTCALYGFQFQGAEENQLLQPHSCPVIAAGQGKEVIKTLFNELSVILPQSKNSQTSSLWDAFAYTLAILYYENFKNAYRSEQGYIKKDVLIKDILFYLNNNYREKITLEQLSKKFRASVSYICHEFTKEYRISPINYVIQRRMTEAKWSLTNTELSQAEISWRVGYENVDHFAKLFLRHVGCSPSDYRRQFKNCFAEQEILSEFPQPVSLVGEGGSHHHHHH", "soluble on expression in E. coli": "soluble"}
{"sequence": "AIAGSRQDPVPLSFVTLQEQRCVLSWFLGWNVAQKQRFLEDLISKAVPGKVSSLLDQLNTLQVNDRPPNIFECQLRLWTQWFDSWSEEERNAFLNCLEEKDPTFVAFFYDQVAGTAGRD", "soluble on expression in E. coli": "soluble"}
{"sequence": "MSELHYLYGKPTGTADLRTVNSDFIVKEILPFSPSGEGEHHLVHIRKDGLNTVQVAEMLAKFAKVHPKEVTYAGQKDKNAITEQWFGIRIPGKETPAWIELNSDRLTVLSSSRHSKKLRIGALLGNRFILTLRNVTNVEDIISRIEKVSQIGVPNYFGEQRFGHDGKNLVLGRQMLAGKKVKDRNKRSMYLSAVRSHLFNTVVSYRLTHYGTRPLAGDCVMLAGSKSFFVTPEWDLVVLKRLIEKDIQLSAPLWGRGKMLPQGEAAEVETQAMADLTEDCYGLEHAGLEQERRPLLLEPQGLKHEQTSDGLVLEFILPAGCFATSLLRELVDYQDVKELQWQTTLTAETNVVTESNTAAANVSDNGESASLEHHHHHH", "soluble on expression in E. coli": "soluble"}
{"sequence": "MANDGYFEPTQELSDETRDMHRAIISLREELEAVDLYNQRVNACKDKELKAILAHNRDEEKEHAAMLLEWIRRCDPAFDKELKDYLFTNKPIAHE", "soluble on expression in E. coli": "soluble"}
{"sequence": "MSLDENLIEEIKLADDISKGYNAALNYLSYQLRTRKEVEDKLRSLDIHEDYISEIINKLIDLDLINDKNYAESYVRTMMNTSDKGPKVIKLNLSKKGIDDNIAEDALILYTDKLQVEKGVTLAEKLANRYSHDSYRNKQNKIKQSLLTKGFSYDIIDTIIQELDLIFDDDTEREILLEKANKLWSRYDNLDIKKRKFKIQQALFKQGFSFSNITSALDEIEDTNEGHHHHHH", "soluble on expression in E. coli": "soluble"}
